Experimental findings from patent US7482133B2, “Catalytic domains of β(1,4)-galactosyltransferase I having altered donor and acceptor specificities, domains that promote in vitro protein folding, and methods for their use” (The United States of America as represented by the …, priority 2003, dated 2009) are described below.

Common to all, as to format: biochemical
The nature of series [1]: GalNAc-T specific activity assay. The following applies: for UDP-GalNAc → GlcNAc GalNAc-T activity: donor 500 μM, acceptor β-benzyl-GlcNAc 25 mM. How it is done: (§1) For example, the galactose and N-acetylgalactosyltransferase activity of β(1,4)-galactosyltransferase I can be determined using the following assay conditions. […], 10 mM MnCl2, 10 mM Tris-HCl (pH 8.0), 500 μM UDP-Gal or UDP-GalNAc, and 20 ng of β(1,4)-galactosyltransferase I can be incubated at 37° C. for 10 minutes to promote coupling of a donor sugar to an acceptor sugar. While these conditions are provided as an example, it is understood that many other conditions may be used to chemically link a donor to an acceptor using the altered catalytic domains of the invention.
(§2) Gal-T and GalNAc-T Enzyme Assays: The protein concentrations were measured using the Bio-Rad protein assay kit, based on the method of Bradford and further verified on SDS gel. […] The activities were measured using UDP-Gal or UDP-GalNAc as sugar nucleotide donors, and GlcNAc and Glc as the acceptor sugars. For the specific activity measurements, […], 10 mM MnCl2, 10 mM Tris-HCl, pH 8.0, 500 μM UDP-Gal or UDP-GalNAc, 20 ng of Gal-T1, and 0.5 μCl of [^3H]UDP-Gal or [^3H]UDP-GalNAc was used for each Gal-T or GalNAc-T reaction. The incubation was carried out at 37° C. for 10 min. […] The column was washed successfully with 300, 400, and 500 μl of water, and the column flow-through was diluted with Biosafe scintillation fluid; radioactivity was measured with a Beckman counter. A reaction without the acceptor sugar was used as a control. A similar assay was carried out to measure the GalNAc-T activity with Glc and other acceptors in the presence of 50 μM bovine LA (Sigma).

The nature of series [2]: GalNAc-T activity in absence and presence of LA, acceptor Glc. Conditions: in the presence of LA. How it is done:
Gal-T and GalNAc-T Enzyme Assays: The protein concentrations were measured using the Bio-Rad protein assay kit, based on the method of Bradford and further verified on SDS gel. […] The activities were measured using UDP-Gal or UDP-GalNAc as sugar nucleotide donors, and GlcNAc and Glc as the acceptor sugars. For the specific activity measurements, a 100-μl incubation mixture containing 50 mM β-benzyl-GlcNAc, 10 mM MnCl2, 10 mM Tris-HCl, pH 8.0, 500 μM UDP-Gal or UDP-GalNAc, 20 ng of Gal-T1, and 0.5 μCl of [^3H]UDP-Gal or [^3H]UDP-GalNAc was used for each Gal-T or GalNAc-T reaction. The incubation was carried out at 37° C. for 10 min. […] The column was washed successfully with 300, 400, and 500 μl of water, and the column flow-through was diluted with Biosafe scintillation fluid; radioactivity was measured with a Beckman counter. A reaction without the acceptor sugar was used as a control. […]

Series [3] in a line: Gal-T specific activity assay. The following applies: donor 500 μM; acceptor β-benzyl-GlcNAc 25 mM (10 mM for C342T); saturating conditions. On the procedure:
as §1, §2

A short description of series [4]: GlcNAc-T specific activity assay. Conditions: donor 500 μM; acceptor β-benzyl-GlcNAc 25 mM.
Series [5] is described as follows: Two-substrate kinetic constants, Gal-T reaction. The following applies: UDP-galactose → GlcNAc. The source says: Studies for Determining the Kinetic Constants: The true Km of the donor (KA) and of the acceptor (KB), the dissociation constant of the donor, Ki(a), and kcat were obtained using two-substrate analyses and the primary plots of five concentrations of donor (UDP-Gal or UDP-GalNAc) and five concentrations of acceptor, and the corresponding secondary plots of the intercepts and slopes. Initial rate conditions were linear with respect to time. A suitable range of donor and acceptor concentrations were chosen, which allowed an accurate Michaelis-Menten plot to be derived. The data were also analyzed for a general two-substrate system using the following equations (Zhang et al., Glycobiology, 9:815-822 (1999)) with the software EnzFitter, a Biosoft nonlinear curve-fitting program for Windows.
[formula] Here v is the initial velocity and the rate equation for sequential symmetrical initial velocity pattern associated with Equation 1, an ordered or random equilibrium mechanism in which substrate A dissociates well from the E-S complex with a dissociation constant of Ki(a). Equation 2 is for asymmetric initial velocity pattern for a double displacement or “ping-pong” mechanism. The kinetic parameters KA, KB, Ki(a), and Vmax, were obtained from the fitted curves using the above rate equations. The graphical method and EnzFitter program gave very similar kinetic parameters. In the N-acetylgalactosamine transferase (GalNAc-T) assay, the maximum substrate concentrations used for UDP-GalNAc and GlcNAc were 1 and 200 mM, respectively. However, in the galactose transferase (Gal-T) assay, because of the limited solubility of GlcNAc in water, the concentration of GlcNAc was limited to no more than […] (which is 2-fold higher than its Km value), whereas up to 300 μM UDP-Gal were used.

The nature of series [6]: β4Gal-T1 enzyme assay of in vitro folded CD and SRCD proteins. The following applies: condition I or VIII. How it is done:
β4Gal-T1 Enzyme Assays: The in vitro assay for β4Gal-T1 enzyme activity was performed as described (Boeggeman et al., Glycobiology, 12:395-407 (2002)). The ^3H-labeled-UDP-Gal was used as sugar donor and GlcNAc as the sugar acceptor. A reaction without GlcNAc was used as a control.
Binding of recombinant proteins to UDP-affinity column: UDP-agarose was used to bind the active proteins at 4° C. Columns containing 1 ml bed volume of UDP-agarose were pre-equilibrated with 10 ml of 25 mM cacodylic buffer, pH 7.6, containing 25 mM MnCl2. The renatured protein solutions (0.5 mg) were adjusted to the pre-equilibration buffer conditions and applied to the columns. After loading the sample, the pass-through was re-cycled. It was then analyzed for the unbound protein by SDS-PAGE. The columns were washed 3× with 1-ml portions of equilibration buffer. The bound protein was eluted with the elution buffer consisting of 25 mM cacodylic buffer, pH 7.6, 25 mM EDTA and 1 M NaCl. Fractions of 0.5 ml were collected from the columns, and aliquots were analysed by SDS-PAGE. For enzymatic analysis the appropriate fractions were pooled and dialysed against 50 mM Tris-HCl pH 8.0 at 4° C. […]

B1: Y289N: bovine Gal-T1 catalytic domain, Tyr-289 exchanged with Asn (protein)
chain: SLTACPEESPLLVGPMLIEFNIPVDLKLIEQQNPKVKLGGRYTPMDCISPHKVAIIILFRNRQEHLKYWLYYLHPMVQRQQLDYGIYVINQAGESMFNRAKLLNVGFKEALKDYDYNCFVFSDVDLIPMNDHNTYRCFSQPRHISVAMDKFGFSLPYVQNFGGVSALSKQQFLSINGFPNNYWGWGGEDDDIYNRLAFRGMSVSRPNAVIGKTRMIRHSRDKKNEPNPQRFDRIAHTKETMLSDGLNSLTYMVLEVQRYPLYTKITVDIGTPS
For the molecule B1, the “galactose transferase versus N-acetylgalactosyltransferase activity” value in series [1] (comparison in words (Table III, FIG. 1)) was “equally strong galactose transferase and N-acetylgalactosyltransferase activities”. In addition, in series [2], the “acceptor preference of GalNAc transfer” value is “transfer GalNAc preferably to Glc rather than to GlcNAc”.

B2: Y289I_C342T: bovine Gal-T1 catalytic domain (residues 130-402), Tyr-289 exchanged with Ile, with Cys-342 to Thr mutation (protein)
chain: SLTACPEESPLLVGPMLIEFNIPVDLKLIEQQNPKVKLGGRYTPMDCISPHKVAIIILFRNRQEHLKYWLYYLHPMVQRQQLDYGIYVINQAGESMFNRAKLLNVGFKEALKDYDYNCFVFSDVDLIPMNDHNTYRCFSQPRHISVAMDKFGFSLPYVQIFGGVSALSKQQFLSINGFPNNYWGWGGEDDDIYNRLAFRGMSVSRPNAVIGKTRMIRHSRDKKNEPNPQRFDRIAHTKETMLSDGLNSLTYMVLEVQRYPLYTKITVDIGTPS
For the molecule B2, the “UDP-galactose → GlcNAc Gal-T activity” value in series [3] is on record as 8.8 pmol/min/ng. For the same molecule, the “affinity to UDP-GalNAc” value in series [1] (FIG. 1, in words) was “slightly weaker affinity”. Also, the “specific N-acetylgalactosyltransferase activity relative to Y289L” value in series [1] (at the substrate concentration used) is “half that of Y289L”. In addition, the “UDP-GalNAc → GlcNAc GalNAc-T activity” value in series [1] was 14.7 pmol/min/ng. Moreover, the “UDP-GlcNAc → GlcNAc GlcNAc-T activity” value in series [4] came to 6.2 pmol/min/ng. The “acceptor preference of GalNAc transfer” value in series [2] is on record as “transfer GalNAc preferably to Glc rather than to GlcNAc”.

B3: C342T: catalytic domain of bovine Gal-T1 (residues 130-402) with the C342T mutation (protein, UniProt P08037 130-402, looked up, variant C342T)
chain: SLTACPEESPLLVGPMLIEFNIPVDLKLVEQQNPKVKLGGRYTPMDCISPHKVAIIIPFRNRQEHLKYWLYYLHPILQRQQLDYGIYVINQAGESMFNRAKLLNVGFKEALKDYDYNCFVFSDVDLIPMNDHNTYRCFSQPRHISVAMDKFGFSLPYVQYFGGVSALSKQQFLSINGFPNNYWGWGGEDDDIYNRLAFRGMSVSRPNAVIGKTRMIRHSRDKKNEPNPQRFDRIAHTKETMLSDGLNSLTYMVLEVQRYPLYTKITVDIGTPS
modifications: catalytic domain
notes: catalytic domain of bovine Gal-T1 (residues 130-402) with the C342T mutation
For B3, the “UDP-galactose → GlcNAc Gal-T activity” value in series [3] is given as 11.8 pmol/min/ng. Besides, the “UDP-GalNAc → GlcNAc GalNAc-T activity” value in series [1] is 0.1 pmol/min/ng. For the same molecule, the “UDP-GlcNAc → GlcNAc GlcNAc-T activity” value in series [4] is given as 0 pmol/min/ng. In series [5], the “KA (true Km of the donor), Gal-T” value was 98 (6) μM and the “KB (true Km of the acceptor), Gal-T” value was 11 (1) MM. Moreover, the Kcat., Gal-T in series [5] (unit assumed) stood at 14 s⁻¹.

B4: bovine CDβ4Gal-T1: catalytic domain (residues 130-402) of bovine β4Gal-T1 (protein, UniProt P08037 130-402, looked up, fragment)
chain: SLTACPEESPLLVGPMLIEFNIPVDLKLVEQQNPKVKLGGRYTPMDCISPHKVAIIIPFRNRQEHLKYWLYYLHPILQRQQLDYGIYVINQAGESMFNRAKLLNVGFKEALKDYDYNCFVFSDVDLIPMNDHNTYRCFSQPRHISVAMDKFGFSLPYVQYFGGVSALSKQQFLSINGFPNNYWGWGGEDDDIYNRLAFRGMSVSRPNAVIGKCRMIRHSRDKKNEPNPQRFDRIAHTKETMLSDGLNSLTYMVLEVQRYPLYTKITVDIGTPS
modifications: catalytic domain
notes: catalytic domain (residues 130-402) of bovine β4Gal-T1
Consider B4, for which, in series [6], the “specific activity before and after binding on UDP-agarose columns” value was “did not change”.
